Results: US9527913B2, “Humanized pan-HER antibody compositions” (Symphogen A/S, priority 2012, dated 2016)

Assays:
[1] = system: EGFR, HER2 and HER3 from humans, cynomolgus monkeys and mice, human and murine HER4; test: Cross-reactivity ELISA with coated antigens; assay type: binding, mouse; conditions: OD at 450 nm, 40 nM antibody, compared to chimeric parent
Description: Antibody-antigen binding was measured by ELISA with coated antigens. Human antigens were obtained from Sino Biologicals. All other antigens were produced in-house by transient expression in CHO or HEK293 cells. Chimeric and humanized antibodies, as well as an isotype control antibody, were incubated with the coated antigens at different concentrations. After wash, bound antibodies were detected by HRP-(horse radish peroxidase)-conjugated secondary antibodies. The OD signal from 40 nM antibody, measured at 450 nm using an ELISA reader, was scored from negative (−; OD<0.1) to strongly positive (+++; OD>2.5).

[2] = system: cynomolgus HER3; test: Kinetic binding analysis by surface plasmon resonance (ProteOn XPR36, IgG capture); conditions: Cynomolgus antigen
Description: (§1) Kinetic binding analysis of the purified humanized variants was performed on a ProteOn™ XPR36 biosensor (BioRad, USA) employing an IgG capture assay as described by Canziani et al. (Anal. Biochem. (2004) 325:301-307) that allows for measurement of antibody affinities of whole IgG molecules against soluble antigen under monovalent conditions. Briefly, approximately 5000 resonance units (RU) of a monoclonal mouse anti-human IgG Fc antibody (GE Healthcare, Denmark) was conjugated to a GLC chip surface (BioRad, USA) according to the manufacturer's instructions, followed by capture of individual antibodies of the invention or a negative control on the anti-Fc sensor surface. […] Next, 250 μl monovalent antigen (Sino Biologicals) was injected at a flow rate of 50 μl/min in serial threefold dilutions from 100 nM stock to generate response curves. The chip surface was regenerated between cycles by stripping the captured antibody/antigen complexes off the surface with a 10-second injection of 3 M MgCl2 (GE Healthcare, Denmark) repeated three times. Finally, binding responses were fitted to a Langmuir 1:1 binding model for calculation of the on-rate (kon or ka), off-rate (koff or kd) and affinity (KD) constants using double referencing.

[3] = target: T1, human HER3 (Homo sapiens, UniProt P21860); test: as above; conditions: Human antigen
T1 construct: against soluble antigen under monovalent conditions; purchased Sino Biologicals
Description: as §1

[4] = system: A431NS, H358, FaDu, OE19, BT474, MDA-MB-175 VII, MCF-7, N87, HN5, MFE-280 cancer cell lines; test: Viability assay (WST-1) of humanized variants with partner antibody and of six-antibody mixtures; assay type: cell-based, human; conditions: two cell lines per variant, 96 hours
Description: Each humanized variant was tested in two cell lines and compared to the parental mixture of two chimeric antibodies and to a negative control antibody. […] In addition, a combination of six humanized variants (11294, 11302, 11249, 11145, 10738 and 11052; Humanized Pan-HER) was tested in a number of cell lines and compared to the combination of the six chimeric antibodies (1277, 1565, 4384, 4517, 5038 and 5082; Chimeric Pan-HER). The cell lines used, N87 gastric, FaDu head and neck, A431NS epidermoid, OE19 esophageal, HN5 head and neck, MDA-MB-175 VII breast and MFE-280 endometrial cancer, were selected on the basis of their previously determined dependency on the HER family receptors.
Prior to performing the viability assay the appropriate antibodies and antibody mixtures were diluted to a final total antibody concentration of 100 μg/ml in appropriate media supplemented with 0.5-2% FBS and 1% P/S (penicillin/streptomycin), yielding a final total antibody concentration of 50 μg/ml in the well containing the highest antibody concentration. A threefold serial dilution of the antibodies was then performed in a 384-well plate, followed by addition of relevant numbers of cells to the experimental wells. The MCF-7 cells were also stimulated with 1 nM heregulin beta. The plates were incubated for 4 days in a humidified incubator at 37° C. WST-1 reagent (Roche Applied Science, Mannheim, Germany) was added to the plates and the plates were incubated for 1-3 h at 37° C. Plates were transferred to an orbital plate shaker for one h and the absorbance was measured at 450 and 620 nm (reference wavelength) using an ELISA reader. The percentage of metabolically active cells (MAC) is calculated as a percentage of the untreated control as follows: […]

[5] = system: human or cynomolgus antigen (EGFR, HER2 or HER3); test: Off-rate ranking of library hits (Octet QK384, Protein G biosensors); assay type: binding; conditions: expression supernatant, antigen at 200 nM, dissociation 20 min
Description: Approximately 100 hits from each library that yielded an OD signal similar to or higher than that of the chimeric parent antibody were subjected to off-rate ranking using an Octet® QK384 instrument (Fortebio, Menlo Park, Calif.). Protein G biosensors (Fortebio) were used for capturing of antibody from 40 μl of expression supernatant followed by incubation with human or cynomolgus antigen at 200 nM. Human antigens were obtained from Sino Biologicals and cynomolgus antigens were produced in-house by transient expression in CHO or HEK293 cells (Koefoed et al. (2011) mAbs, 3:6, 1-12). Subsequently, the biosensors were incubated in PBS and the dissociation of antigen was recorded for 20 min to allow for a reliable determination of the dissociation rates. The responses were globally fitted to a Langmuir 1:1 binding model for calculation of dissociation constants.

[6] = target: cynomolgus HER2; test: Kinetic binding analysis by surface plasmon resonance (ProteOn XPR36, IgG capture); conditions: Cynomolgus antigen
Description: as §1

[7] = target: T2, human HER2 (Homo sapiens, UniProt P04626); test: as above; conditions: Human antigen
T2 construct: against soluble antigen under monovalent conditions; purchased Sino Biologicals
Description: as §1

Molecule | cross-reactivity pattern with HER family antigens [1] | ka [2] [M⁻¹ s⁻¹] | kd [2] [s⁻¹] | ka [3] [M⁻¹ s⁻¹] | kd [3] [s⁻¹] | KD (estimated) ([3]; KD could not be determined due to a very slow off-rate) | anti-proliferative effect in combination with partner antibody, compared to mixture of the two chimeric parent antibodies [4] | dissociation rate (off-rate ranking) compared to parent antibody [5] | Kd [6] [nM] | ka [6] [M⁻¹ s⁻¹] | kd [6] [s⁻¹] | ka [7] [M⁻¹ s⁻¹] | kd [7] [s⁻¹]
antibody 11006: humanized anti-HER3 antibody from chimeric parent 5082; HC SEQ ID NO: 58, LC SEQ ID NO: 59 (antibody, V domains shown) VH: QVQLQESGPGLVKPSQTLSLTCTVSGYSITSAYYWNWIRQHPGKGVEWMGYIGYSGRNTYNPSLKNRVTISRDTSKNQFSLKLSSVTAADTAVYYCSREGDYGYSDYWGQGTLVTVSS VL: DIQMTQSPSSLSASVGDRVTVTCRASQDTNNYLNWYQQKPGKAVKLLIYYTSRLQSGVPSRFSGSGSGTDFTLTISSLQPEDFATYFCQQSETLPWTFGQGTKVEIK | binding to the same human and cynomolgus antigen combined with lack of binding to the mouse antigen or to other EGFR family receptors | 1.5e+06 | 8.7e-05 | 740000 | <2e-06 | *KD could not be determined due to a very slow off-rate. Estimated to be in the picomolar range. | highly similar anti-proliferative effects | improved dissociation rate | – | – | – | – | –
antibody 4517: chimeric parent anti-HER2 antibody disclosed in WO 2012/059857; VH SEQ ID NO: 27, light chain SEQ ID NO: 29 (antibody) VH: EVQLVESGGDLVKPGGSLKLSCAASGFTFSSYGMSWVRLTPDKRLEWVATISGGGSYTYYPDSVKGRFTISRDIAKSTLYLQMSSLKSEDTAVYYCARKGNYGNYGKLAYWGQGTSVTVS light: DIQMTQSPASLSVSVGETVTITCRASENIYSNLAWYQQEQGKSPQLLVYAATNLADGVPSRFSGSGSGTQYSLKINSLQSEDFGSYYCQHFWGTPWTFGGGTKLEIKRTVAAPSVFIFPPSDEQLKSGTASVVCLLNNFYPREAKVQWKVDNALQSGNSQESVTEQDSKDSTYSLSSTLTLSKADYEKHKVYACEVTHQGLSSPVTKSFNRGEC | – | – | – | – | – | – | – | – | 3.7 | 230000 | 0.00086 | 260000 | 0.00029
